Source: the supplement of paper PMC10567573

B1: RAD54B (parent)
chain: YVQEKRDGLKRRQQLEEELLRAKI

Variants of: B1
Test: protein stability index of a GFP-peptide fusion (GPS, HEK-293T) (PSI 1-6); higher = more stable
Conditions: c terminus: a fixed tail appended
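Also: lentivirally expressed fusions sorted by FACS into six bins by GFP to DsRed ratio, PSI derived from sequencing read proportions per bin multiplied by bin number.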

Variant | protein stability index
YVQEKRDGLKRRQQLDEELLRAKI | 1.77
YVQEKRDGLKRRQQLYEELLRAKI | 1.73
YVQEKRDGLKRRQQLWEELLRAKI | 1.73
YVQEKRDGLKRRQQLKEELLRAKI | 1.67
YVQEKRDGLKRRQQLAEELLRAKI | 1.98
YVQEKRDGLKRRQQLNEELLRAKI | 2.07
YVQEKRDGLKRRQQLHEELLRAKI | 1.74
YVQEKRDGLKRRQQLTEELLRAKI | 1.83
YVQEKRDGLKRRQQLQEELLRAKI | 1.8
YVQEKRDGLKRRQQLREELLRAKI | 1.53
YVQEKRDGLKRRQQLVEELLRAKI | 2.24
YVQEKRDGLKRRQQLGEELLRAKI | 2.41
YVQEKRDGLKRRQQLSEELLRAKI | 1.39
YVQEKRDGLKRRQQLCEELLRAKI | 2.09
YVQEKRDGLKRRQQLIEELLRAKI | 1.51
YVQEKRDGLKRRQQLFEELLRAKI | 2.74
YVQEKRDGLKRRQQLMEELLRAKI | 1.74
YVQEKRDGLKRRQQLPEELLRAKI | 1.56
YVQEKRDGLKRRQQLLEELLRAKI | 2.17
YVQEKRDGLKRRQQQEEELLRAKI | 1.7
YVQEKRDGLKRRQQVEEELLRAKI | 1.48
YVQEKRDGLKRRQQREEELLRAKI | 1.99
YVQEKRDGLKRRQQYEEELLRAKI | 2.44
YVQEKRDGLKRRQQEEEELLRAKI | 2.61

Variant | protein stability index
YVQEKRDGLKRRQQDEEELLRAKI | 2.09
YVQEKRDGLKRRQQAEEELLRAKI | 1.93
YVQEKRDGLKRRQQGEEELLRAKI | 1.75
YVQEKRDGLKRRQQNEEELLRAKI | 2.05
YVQEKRDGLKRRQQKEEELLRAKI | 2.05
YVQEKRDGLKRRQQPEEELLRAKI | 1.51
YVQEKRDGLKRRQQTEEELLRAKI | 1.55
YVQEKRDGLKRRQQMEEELLRAKI | 2.56
YVQEKRDGLKRRQQWEEELLRAKI | 1.49
YVQEKRDGLKRRQQCEEELLRAKI | 1.87
YVQEKRDGLKRRQQHEEELLRAKI | 2.38
YVQEKRDGLKRRQQFEEELLRAKI | 1.4
YVQEKRDGLKRRQQIEEELLRAKI | 2.32
YVQEKRDGLKRRQQSEEELLRAKI | 1.95
YVQEKRDGLKRRQQLEYELLRAKI | 1.36
YVQEKRDGLKRRQQLESELLRAKI | 2.15
YVQEKRDGLKRRQQLEQELLRAKI | 1.51
YVQEKRDGLKRRQQLEFELLRAKI | 1.87
YVQEKRDGLKRRQQLEWELLRAKI | 1.9
YVQEKRDGLKRRQQLELELLRAKI | 2.19
YVQEKRDGLKRRQQLECELLRAKI | 2.21
YVQEKRDGLKRRQQLERELLRAKI | 2.44
YVQEKRDGLKRRQQLEGELLRAKI | 2.35
YVQEKRDGLKRRQQLEMELLRAKI | 2.21

Variant | protein stability index
YVQEKRDGLKRRQQLENELLRAKI | 2
YVQEKRDGLKRRQQLEAELLRAKI | 1.6
YVQEKRDGLKRRQQLETELLRAKI | 2.08
YVQEKRDGLKRRQQLEVELLRAKI | 2.25
YVQEKRDGLKRRQQLEHELLRAKI | 1.84
YVQEKRDGLKRRQQLEDELLRAKI | 2.01
YVQEKRDGLKRRQQLEPELLRAKI | 1.98
YVQEKRDGLKRRQQLEKELLRAKI | 1.9
YVQEKRDGLKRRQQLEIELLRAKI | 2.45
YVQEKRDGLLRRQQLEEELLRAKI | 2.28
YVQEKRDGLERRQQLEEELLRAKI | 2.58
YVQEKRDGLDRRQQLEEELLRAKI | 2.04
YVQEKRDGLSRRQQLEEELLRAKI | 2.49
YVQEKRDGLWRRQQLEEELLRAKI | 1.47
YVQEKRDGLFRRQQLEEELLRAKI | 1.6
YVQEKRDGLYRRQQLEEELLRAKI | 1.77
YVQEKRDGLGRRQQLEEELLRAKI | 2.28
YVQEKRDGLIRRQQLEEELLRAKI | 1.97
YVQEKRDGLMRRQQLEEELLRAKI | 2.46
YVQEKRDGLPRRQQLEEELLRAKI | 2.55
YVQEKRDGLQRRQQLEEELLRAKI | 2.5
YVQEKRDGLHRRQQLEEELLRAKI | 2.4
YVQEKRDGLVRRQQLEEELLRAKI | 2.9
YVQEKRDGLARRQQLEEELLRAKI | 2.04

Variant | protein stability index
YVQEKRDGLTRRQQLEEELLRAKI | 2.5
YVQEKRDGLRRRQQLEEELLRAKI | 1.98
YVQEKRDGLCRRQQLEEELLRAKI | 1.83
YVQEKRDGLNRRQQLEEELLRAKI | 2.41
YVQEKRDGLKPRQQLEEELLRAKI | 2.25
YVQEKRDGLKLRQQLEEELLRAKI | 2.23
YVQEKRDGLKARQQLEEELLRAKI | 2.82
YVQEKRDGLKQRQQLEEELLRAKI | 2.32
YVQEKRDGLKERQQLEEELLRAKI | 3.22
YVQEKRDGLKIRQQLEEELLRAKI | 2.86
YVQEKRDGLKNRQQLEEELLRAKI | 2.67
YVQEKRDGLKFRQQLEEELLRAKI | 1.69
YVQEKRDGLKHRQQLEEELLRAKI | 2.93
YVQEKRDGLKMRQQLEEELLRAKI | 2.07
YVQEKRDGLKYRQQLEEELLRAKI | 1.97
YVQEKRDGLKDRQQLEEELLRAKI | 2.62
YVQEKRDGLKWRQQLEEELLRAKI | 2.46
YVQEKRDGLKGRQQLEEELLRAKI | 2
YVQEKRDGLKCRQQLEEELLRAKI | 1.81
YVQEKRDGLKVRQQLEEELLRAKI | 2.13
YVQEKRDGLKKRQQLEEELLRAKI | 2.44
YVQEKRDGLKTRQQLEEELLRAKI | 2.46
YVQEKRDGLKSRQQLEEELLRAKI | 2.36
YVQEKRDGLKRRQQLEEPLLRAKI | 2

Variant | protein stability index
YVQEKRDGLKRRQQLEEKLLRAKI | 1.95
YVQEKRDGLKRRQQLEERLLRAKI | 1.88
YVQEKRDGLKRRQQLEEMLLRAKI | 2.01
YVQEKRDGLKRRQQLEEGLLRAKI | 2.53
YVQEKRDGLKRRQQLEEALLRAKI | 2.02
YVQEKRDGLKRRQQLEEHLLRAKI | 2.29
YVQEKRDGLKRRQQLEEDLLRAKI | 1.86
YVQEKRDGLKRRQQLEEWLLRAKI | 2.42
YVQEKRDGLKRRQQLEEQLLRAKI | 2.03
YVQEKRDGLKRRQQLEETLLRAKI | 1.48
YVQEKRDGLKRRQQLEENLLRAKI | 1.96
YVQEKRDGLKRRQQLEELLLRAKI | 1.55
YVQEKRDGLKRRQQLEEYLLRAKI | 2.22
YVQEKRDGLKRRQQLEECLLRAKI | 1.73
YVQEKRDGLKRRQQLEESLLRAKI | 2.13
YVQEKRDGLKRRQQLEEFLLRAKI | 2.06
YVQEKRDGLKRRQQLEEVLLRAKI | 1.94
YVQEKRDGLKRRQQLEEILLRAKI | 1.67
YVQEKRDGLKRRSQLEEELLRAKI | 1.69
YVQEKRDGLKRRDQLEEELLRAKI | 2.3
YVQEKRDGLKRRYQLEEELLRAKI | 1.9
YVQEKRDGLKRRFQLEEELLRAKI | 1.62
YVQEKRDGLKRRMQLEEELLRAKI | 2.07
YVQEKRDGLKRRPQLEEELLRAKI | 2.17

Variant | protein stability index
YVQEKRDGLKRRNQLEEELLRAKI | 1.91
YVQEKRDGLKRRKQLEEELLRAKI | 1.46
YVQEKRDGLKRRVQLEEELLRAKI | 2.4
YVQEKRDGLKRRGQLEEELLRAKI | 2.31
YVQEKRDGLKRRCQLEEELLRAKI | 1.84
YVQEKRDGLKRRWQLEEELLRAKI | 1.98
YVQEKRDGLKRRTQLEEELLRAKI | 2.32
YVQEKRDGLKRRLQLEEELLRAKI | 2.32
YVQEKRDGLKRRHQLEEELLRAKI | 2.06
YVQEKRDGLKRRRQLEEELLRAKI | 1.71
YVQEKRDGLKRRIQLEEELLRAKI | 2.49
YVQEKRDGLKRREQLEEELLRAKI | 2.41
YVQEKRDGLKRRAQLEEELLRAKI | 2.23
YVQEKRDGLKRRQQLEEEILRAKI | 1.88
YVQEKRDGLKRRQQLEEECLRAKI | 1.95
YVQEKRDGLKRRQQLEEEGLRAKI | 2.54
YVQEKRDGLKRRQQLEEEFLRAKI | 2.37
YVQEKRDGLKRRQQLEEEHLRAKI | 2.16
YVQEKRDGLKRRQQLEEEELRAKI | 1.95
YVQEKRDGLKRRQQLEEEALRAKI | 1.96
YVQEKRDGLKRRQQLEEEDLRAKI | 2.3
YVQEKRDGLKRRQVLEEELLRAKI | 2.01
YVQEKRDGLKRRQCLEEELLRAKI | 1.77
YVQEKRDGLKRRQHLEEELLRAKI | 1.94

Variant | protein stability index
YVQEKRDGLKRRQFLEEELLRAKI | 2.12
YVQEKRDGLKRRQMLEEELLRAKI | 1.75
YVQEKRDGLKRRQNLEEELLRAKI | 1.65
YVQEKRDGLKRRQPLEEELLRAKI | 1.99
YVQEKRDGLKRRQDLEEELLRAKI | 2.2
YVQEKRDGLKRRQRLEEELLRAKI | 2.09
YVQEKRDGLKRRQKLEEELLRAKI | 2.35
YVQEKRDGLKRRQELEEELLRAKI | 2
YVQEKRDGLKRRQLLEEELLRAKI | 1.86
YVQEKRDGLKRRQYLEEELLRAKI | 2.25
YVQEKRDGLKRRQSLEEELLRAKI | 1.67
YVQEKRDGLKRRQALEEELLRAKI | 1.93
YVQEKRDGLKRRQGLEEELLRAKI | 2.33
YVQEKRDGLKRRQTLEEELLRAKI | 1.75
YVQEKRDGLKRRQILEEELLRAKI | 1.76
YVQEKRDGLKRRQWLEEELLRAKI | 2.12
YVQEKRDGLKRYQQLEEELLRAKI | 2.01
YVQEKRDGLKRMQQLEEELLRAKI | 2.02
YVQEKRDGLKRQQQLEEELLRAKI | 2.35
YVQEKRDGLKRTQQLEEELLRAKI | 2.19
YVQEKRDGLKRNQQLEEELLRAKI | 2.41
YVQEKRDGLKRAQQLEEELLRAKI | 1.85
YVQEKRDGLKRLQQLEEELLRAKI | 1.98
YVQEKRDGLKRGQQLEEELLRAKI | 2.25

Variant | protein stability index
YVQEKRDGLKRHQQLEEELLRAKI | 2.18
YVQEKRDGLKRKQQLEEELLRAKI | 2.47
YVQEKRDGLKRSQQLEEELLRAKI | 2.06
YVQEKRDGLKREQQLEEELLRAKI | 2.34
YVQEKRDGLKRWQQLEEELLRAKI | 1.89
YVQEKRDGLKRIQQLEEELLRAKI | 1.99
YVQEKRDGLKRFQQLEEELLRAKI | 2.28
YVQEKRDGLKRVQQLEEELLRAKI | 2.04
YVQEKRDGLKRPQQLEEELLRAKI | 1.96
YVQEKRDGLKRCQQLEEELLRAKI | 2.25
YVQEKRDGLKRDQQLEEELLRAKI | 3.23
YVQEKRDGNKRRQQLEEELLRAKI | 2.35
YVQEKRDGPKRRQQLEEELLRAKI | 2.36
YVQEKRDGRKRRQQLEEELLRAKI | 1.79
YVQEKRDGSKRRQQLEEELLRAKI | 1.99
YVQEKRDGQKRRQQLEEELLRAKI | 2.26
YVQEKRDGYKRRQQLEEELLRAKI | 1.91
YVQEKRDGVKRRQQLEEELLRAKI | 1.82
YVQEKRDGWKRRQQLEEELLRAKI | 1.81
YVQEKRDGTKRRQQLEEELLRAKI | 1.83
